Experimental data published in patent US20160362487A1 (Regeneron, published 2016).

T1: human IL-33 (R&D Systems, #3625-IL-010/CF) (human, UniProt O95760 112-270)
T1 sequence (looked up): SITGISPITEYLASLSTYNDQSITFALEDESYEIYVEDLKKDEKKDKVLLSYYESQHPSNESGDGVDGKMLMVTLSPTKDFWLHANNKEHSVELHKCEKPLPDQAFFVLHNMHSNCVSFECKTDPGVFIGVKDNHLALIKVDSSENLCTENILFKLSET

T2: cynomolgus monkey IL-33 expressed with a C-terminal hexahistidine tag (cynomolgus monkey)
T2 chain: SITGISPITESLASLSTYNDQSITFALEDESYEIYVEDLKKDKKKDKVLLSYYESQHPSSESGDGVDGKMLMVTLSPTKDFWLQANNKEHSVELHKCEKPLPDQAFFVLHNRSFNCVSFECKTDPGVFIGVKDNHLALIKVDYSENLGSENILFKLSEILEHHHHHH


Experiments:
[1] = target: T1, human IL-33 (R&D Systems, …); experiment: cell-based or functional assay
[2] = target: T2, cynomolgus monkey IL-33 expressed with …; experiment: cell-based or functional assay
[3] = target: T1, human IL-33 (R&D Systems, …); experiment: SPR 25C pH7.4, mAb captured
In short: (§1)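 KD and dissociative half-life were calculated from ka and kd, obtained by 1:1 fitting of SPR sensorgrams. The analyte flowed over captured anti-IL-33 antibodies for 4 min, then dissociated 10 min in pH 7.4 ADA buffer with EDTA and Tween-20.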

[4] = target: T2, cynomolgus monkey IL-33 expressed with …; experiment: SPR 25C pH7.4, mAb captured
In short: as §1

[5] = target: T1, human IL-33 (R&D Systems, …); experiment: SPR 37C pH7.4, mAb captured
In short: as §1

[6] = target: T2, cynomolgus monkey IL-33 expressed with …; experiment: SPR 37C pH7.4, mAb captured
In short: as §1

[7] = target: T1, human IL-33 (R&D Systems, …); experiment: SPR 37C, pH6.0 chase, mAb captured
In short: (§2)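 KD and t½ were derived from kinetic rates (1:1 model) measured by SPR at 25 °C or 37 °C, with human IL-33 or His-tagged cynomolgus IL-33 flowed over mAbs captured by anti-species Fc antibodies. Standard runs in ADA/NaCl/EDTA/Tween buffer at pH 7.4 used 4 min binding and 10 min washout. The low-pH variant switched to pH 6.0 buffer for 3 min after a 30 s neutral dissociation.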

[8] = target: T2, cynomolgus monkey IL-33 expressed with …; experiment: SPR 37C, pH6.0 chase, mAb captured
In short: as §2

[9] = target: T2, cynomolgus monkey IL-33 expressed with …; experiment: BLI; mAb-1 on captured MfIL-33-6His
In short: (§3)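 After MfIL-33-6His capture, biosensors took up 50 μg/mL mAb-1 for 5 min, then 50 μg/mL mAb-2 for 4 min, with buffer washes between steps. Peak response per step was recorded by label-free BLI. Run at 25 °C in HBS-ET kinetics buffer (pH 7.4, 0.1 mg/ml BSA).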

[10] = target: T2, cynomolgus monkey IL-33 expressed with …; experiment: BLI; captured MfIL-33-6His, mAb-1 step with Buffer
In short: as §3

Row | Binder | IC50, inhibition of 10 pM hIL-33 activation of HEK293/hST2/NFkB-luciferase cells [1] | IC50, inhibition of 5 pM MfIL-33-6His activation of HEK293/hST2/NFkB-luciferase cells [2] | Kd [3] | koff [3] | kon [3] | t½ [3] | Kd [4] | koff [4] | kon [4] | t½ [4] | Kd [5] | koff [5] | kon [5] | t½ [5] | Kd [6] | koff [6] | kon [6] | t½ [6] | koff [7] | t½ [7] | further results
1 | H4H9675P (antibody, human IgG4, V domains shown, Human IgG4 Fc (H4H)) VH: EVQLVESGGNLEQPGGSLRLSCTASGFTFSRSAMNWVRRAPGKGLEWVSGISGSGGRTYYADSVKGRFTISRDNSKNTLYLQMNSLSAEDTAAYYCAKDSYTTSWYGGMDVWGHGTTVTVSS VL: DIQMTQSPSSVSASVGDRVTITCRASQGIFSWLAWYQQKPGKAPKLLIYAASSLQSGVPSRFSGSGSGTDFTLTISSLQPEDFAIYYCQQANSVPITFGQGTRLEIK | 7.5e-12 M | 4.1e-09 M | 0.254 nM | 0.000258 s⁻¹ | 1.02e+06 M⁻¹ s⁻¹ | 45 min | 2.55 nM | 0.00129 s⁻¹ | 506000 M⁻¹ s⁻¹ | 9 min | 0.411 nM | 0.000872 s⁻¹ | 2.12e+06 M⁻¹ s⁻¹ | 13 min | 4.81 nM | 0.00491 s⁻¹ | 1.02e+06 M⁻¹ s⁻¹ | 2.4 min | 0.00463 s⁻¹ | 2 min | t½ Ratio (pH 7.4/pH 6.0) [7]: 5.3; koff [8]: 0.00735 s⁻¹; t½ [8]: 1.6 min; t½ Ratio (pH 7.4/pH 6.0) [8]: 1.5; mAb-1 Binding (nm) [9]: 0.52 nm; mAb-2 Binding to the Pre-complex of mAb-1 & MfIL-33-6xHis [10]: 0.31 nm
2 | H1M9559N (antibody, mouse IgG1, V domains shown, Human variable domains, mouse IgG1 Fc (H1M)) VH: QVQLVESGGGVVQPGRSLRLSCAASGFTFSSYGMHWVRQAPGKGLEWVAVIWYDGRNKYYTDSVKGRFTISRDNSKNTLYLQMDSLRAEDTAVYYCARERYISSYYGGFDPWGQGALVTVSS VL: DIQMTQSPSSVSASVGDRVTITCRASQGISSWLAWYQQKPGKAPKVLIYAASSLQSGVPSRFSGSGSGTDFTLTISSLQPEDFATYYCQQANSFPFTFGPGTKLDIK | 2e-09 M | 4.9e-08 M | 0.678 nM | 0.000274 s⁻¹ | 404000 M⁻¹ s⁻¹ | 42 min | 3.82 nM | 0.00123 s⁻¹ | 321000 M⁻¹ s⁻¹ | 9 min | 2.03 nM | 0.000962 s⁻¹ | 473000 M⁻¹ s⁻¹ | 12 min | 7.04 nM | 0.00347 s⁻¹ | 493000 M⁻¹ s⁻¹ | 3.3 min | 0.000992 s⁻¹ | 12 min | t½ Ratio (pH 7.4/pH 6.0) [7]: 1; koff [8]: 0.00307 s⁻¹; t½ [8]: 4 min; t½ Ratio (pH 7.4/pH 6.0) [8]: 0.9; mAb-1 Binding (nm) [9]: 0.5 nm; mAb-2 Binding to the Pre-complex of mAb-1 & MfIL-33-6xHis [10]: 0.25 nm
3 | H4H9670P (antibody, V domains shown, Human IgG4 Fc (H4H)) VH: EVQLVESGGGLVQPGGSLRLSCAASGFTLSSYAMSWVRQAPGKGLEWVSAISGSGGSTYYADSVKGRFTISRDNSKNSLYLQLNSLRAEDTAVYYCAKTLYTTSWYGGFQHWGQGTLVTVSS VL: DIQMTQSPSSVSASIGDRVTITCRASQGISSWLAWYQQKPGKVPKLLIYAASSLQSGFPSRFSGSGSGTDFTLTISSLQPEDFATYYCQQTHSFPWTVGQGTKVEIK | 1.2e-10 M | 1.7e-08 M | 0.368 nM | 0.000289 s⁻¹ | 786000 M⁻¹ s⁻¹ | 40 min | 4.77 nM | 0.0021 s⁻¹ | 440000 M⁻¹ s⁻¹ | 6 min | 0.676 nM | 0.000783 s⁻¹ | 1.16e+06 M⁻¹ s⁻¹ | 15 min | 6.84 nM | 0.00503 s⁻¹ | 735000 M⁻¹ s⁻¹ | 2.3 min | 0.00383 s⁻¹ | 3 min | t½ Ratio (pH 7.4/pH 6.0) [7]: 4.9; koff [8]: 0.00165 s⁻¹; t½ [8]: 7 min; t½ Ratio (pH 7.4/pH 6.0) [8]: 0.3; mAb-1 Binding (nm) [9]: 0.56 nm; mAb-2 Binding to the Pre-complex of mAb-1 & MfIL-33-6xHis [10]: 0.3 nm
4 | H4H9671P (antibody, human IgG4, V domains shown, Human IgG4 Fc (H4H)) VH: EVQLVESGGGLVQPGGSLRLSCAASGFTLRSYFMTWVRQVPGKGLEGVSAISGISGGTYYTDSVKGRFTISRDNSKNTLFLQMNSLRAEDTAVYFCARTVYSSSYYGGFQHWGQGTLVTVSS VL: DIQMTQSPSSVSVSVGDRVTITCRASQGISSWLAWYQQKPGKAPKLLIYVASSLQSGVPSRFSGSGSGTDFTLTISSLQPEDFATYYCQQTNSFPLTFGGGTKVEIK | 2.5e-11 M | 4.8e-09 M | 0.453 nM | 0.000349 s⁻¹ | 771000 M⁻¹ s⁻¹ | 33 min | 2.55 nM | 0.0015 s⁻¹ | 587000 M⁻¹ s⁻¹ | 8 min | 0.938 nM | 0.00114 s⁻¹ | 1.21e+06 M⁻¹ s⁻¹ | 10 min | 5.08 nM | 0.00607 s⁻¹ | 1.2e+06 M⁻¹ s⁻¹ | 1.9 min | 0.00585 s⁻¹ | 2 min | t½ Ratio (pH 7.4/pH 6.0) [7]: 5.1; koff [8]: 0.00819 s⁻¹; t½ [8]: 1.4 min; t½ Ratio (pH 7.4/pH 6.0) [8]: 1.3; mAb-1 Binding (nm) [9]: 0.58 nm; mAb-2 Binding to the Pre-complex of mAb-1 & MfIL-33-6xHis [10]: 0.29 nm
